Test results as given in patent US20030138859A1, “Assay kits and methods for immune complex-mediate activation involving shed antigens” (BioCrystal, Ltd., priority 1999, published 2003).

Columns and labels:
[1] = system: mucin-secreting human tumor cell line T-47D; assay: In vitro tumor cell invasion assay through matrix (Boyden chamber) with stromal cells; assay type: cell-based; details: anti-sTn IgG1 mAb
Excerpt: To illustrate this embodiment, granulocytes (polymorphonuclear cells) were harvested by positive selection from peripheral blood, and macrophages were harvested by peritoneal wash, from C3H-SCID beige mice in order to avoid contaminating mouse NK cells, natural Abs, or any immune recognition by mouse T or B lymphocytes. In this in vitro tumor cell invasion assay, used were mucin-secreting human tumor cell line T-47D, a Boyden chamber, and a commercially available basement membrane matrix preparation (“matrix”) which solidifies into a semisolid matrix. In this assay, tested was the ability of tumor cells (2×10^4 cells) to migrate through the matrix (layered into a 6.5 mm well insert containing a polycarbonate membrane having a 3.0 μm pore size) in the following conditions: matrix alone; matrix containing stromal cells (2×10^5 cells, granulocytes and macrophages combined); matrix in the presence of anti-shed tumor antigen antibody (anti-sTn mAb; IgG1; 0.06 μg); matrix containing stromal cells in the presence of anti-sTn mAb (0.06 μg); and matrix containing stromal cells in the presence of Fab fragments (0.06 μg) of the anti-sTn mAb. […] Invasion was measured by counting the number of tumor cells per well which migrated to the bottom of the chamber after 48 to 72 hours. […]

[2] = target: FcγRI on type 1 or type 2 endothelial cells; assay: cell-based or functional assay
[3] = target: murine FcγRI on murine cells (Met 129, B16F10, granulocytes, peritoneal macrophages, MH-S macrophages) (mouse) (UniProt P26151); assay: cell-based or functional assay
murine FcγRI on murine cells (Met 129, B16F10, granulocytes, peritoneal macrophages, MH-S macrophages) (mouse), sequence (P26151 25-404): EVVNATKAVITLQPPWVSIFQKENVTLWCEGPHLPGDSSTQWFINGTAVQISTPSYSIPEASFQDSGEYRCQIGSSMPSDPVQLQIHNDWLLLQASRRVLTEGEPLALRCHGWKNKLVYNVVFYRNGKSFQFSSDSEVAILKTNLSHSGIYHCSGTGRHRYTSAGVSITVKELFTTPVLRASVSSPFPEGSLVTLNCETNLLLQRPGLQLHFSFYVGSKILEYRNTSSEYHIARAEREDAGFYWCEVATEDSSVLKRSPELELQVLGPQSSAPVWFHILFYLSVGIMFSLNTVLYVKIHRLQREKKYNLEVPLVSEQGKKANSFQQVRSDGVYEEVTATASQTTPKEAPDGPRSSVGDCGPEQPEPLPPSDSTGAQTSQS

For `[N-]=[N+]=[N-]` [azide, sodium azide], the “reduction in tumor cell migration compared to assay in absence of the substance” value ([1]; 0.001% per well) was roughly 5 fold.
Molecule “immune complexes comprising bovine submaxillary mucin and anti-sTn mAb (clone B72.3, IgG1)” has a VEGF production by type 1 endothelial cells (ELISA, 2 h) [2] greater than 5 pg/mL, an IFN-γ secreted, macrophages + IC (ELISA) [3] of 5.3 pg/mL and an IFN-γ secreted, macrophages + tumor cells + IC (ELISA) [3] of 4 pg/mL. For the same molecule, the IFN-γ secreted, macrophages + tumor cells + neutrophils + IC (ELISA) [3] was 4.1 pg/mL, the IL-1β secreted, macrophages + IC (ELISA) [3] was 2.5 pg/mL and the IL-1β secreted, macrophages + tumor cells + neutrophils + IC (ELISA) [3] was 22.8 pg/mL. It also gave an IL-4 secreted, macrophages + IC (ELISA) [3] of 1.5 pg/mL, an IL-4 secreted, macrophages + tumor cells + IC (ELISA) [3] of 1.3 pg/mL and an IL-4 secreted, macrophages + tumor cells + neutrophils + IC (ELISA) [3] of 0.6 pg/mL. It also gave an IL-6 secreted, macrophages + IC (ELISA) [3] of 104 pg/mL and an IL-6 secreted, macrophages + tumor cells + IC (ELISA) [3] of 400 pg/mL.
“methoxysuccinyl-alanyl-alanyl-prolyl-valine-chloromethylketone [MAAPVC]” was tested, and the “reduction in tumor cell migration compared to assay in absence of the substance” value ([1]; 0.1 μg/well) was roughly 5 fold.
